Tested on: Escherichia coli TOP10
Assay: shrunken log2 fold change of peptide-encoding DNA abundance (4.5 h post-induction vs induction); higher = less antimicrobial activity (less host growth inhibition)
Settings: time post-induction: 4.5 h; library: site-saturation at positions 5, 18, 19, 20
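Further: peptides expressed intracellularly from a pBAD plasmid library in pooled LB shake-flask culture, induced with 0.3% L-arabinose, DNA abundance read by NGS, three biological replicates, DESeq2 with apeglm shrinkage.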

RRIRFRPPRLPRPRPRPPETPRP and RRIRFRPPRLPRPRPRPPGWPRP are within 0.2 log units of each other in “shrunken log2 fold change” value: 0.261 for the first, 0.448 for the second.

Compared with RRIRFRPPRLPRPRPRPPHSPRP, RRIRFRPPRLPRPRPRPPLIPRP is lower in “shrunken log2 fold change” value: 0.386 for the first, -0.182 for the second.

RRIRFRPPRLPRPRPRPPLTPRP and RRIRFRPPRLPRPRPRPPLWPRP are within 0.2 log units of each other in “shrunken log2 fold change” value: 0.354 for the first, 0.46 for the second.

Compared with RRIRFRPPRLPRPRPRPPMRPRP, RRIRFRPPRLPRPRPRPPMTPRP is lower in “shrunken log2 fold change” value: 1.05 for the first, -0.0559 for the second.

Compared with RRIRFRPPRLPRPRPRPPNMPRP, RRIRFRPPRLPRPRPRPPNSPRP is lower in “shrunken log2 fold change” value: -0.0513 for the first, -0.544 for the second.

Compared with RRIRFRPPRLPRPRPRPPPPPRP, RRIRFRPPRLPRPRPRPPPWPRP is lower in “shrunken log2 fold change” value: 1.58 for the first, 0.961 for the second.

RRIRFRPPRLPRPRPRPPQEPRP and RRIRFRPPRLPRPRPRPPSEPRP are within 0.2 log units of each other in “shrunken log2 fold change” value: 0.258 for the first, 0.28 for the second.

First: RRIRFRPPRLPRPRPRPPSRPRP
Second: RRIRFRPPRLPRPRPRPPTIPRP
The “shrunken log2 fold change” value of the first is higher: 0.551 for the first, -0.105 for the second.

RRIRFRPPRLPRPRPRPPTMPRP and RRIRFRPPRLPRPRPRPQADPRP are within 0.2 log units of each other in “shrunken log2 fold change” value: 0.166 for the first, 0.0728 for the second.

RRIRFRPPRLPRPRPRPQAFPRP and RRIRFRPPRLPRPRPRPQALPRP are within 0.2 log units of each other in “shrunken log2 fold change” value: -0.175 for the first, -0.137 for the second.

RRIRFRPPRLPRPRPRPQCYPRP and RRIRFRPPRLPRPRPRPQEDPRP are within 0.2 log units of each other in “shrunken log2 fold change” value: 0.04 for the first, 0.0325 for the second.

Going from RRIRFRPPRLPRPRPRPQFEPRP to RRIRFRPPRLPRPRPRPQGHPRP, the “shrunken log2 fold change” value rises from -0.19 to 0.0395.

Going from RRIRFRPPRLPRPRPRPQGTPRP to RRIRFRPPRLPRPRPRPQHHPRP, the “shrunken log2 fold change” value falls from -0.068 to -0.659.

RRIRFRPPRLPRPRPRPQHIPRP and RRIRFRPPRLPRPRPRPQHPPRP are within 0.2 log units of each other in “shrunken log2 fold change” value: -0.51 for the first, -0.326 for the second.

Going from RRIRFRPPRLPRPRPRPQHWPRP to RRIRFRPPRLPRPRPRPQIIPRP, the “shrunken log2 fold change” value falls from 0.0645 to -0.149.

Compared with RRIRFRPPRLPRPRPRPQITPRP, RRIRFRPPRLPRPRPRPQKEPRP is higher in “shrunken log2 fold change” value: -0.481 for the first, 0.172 for the second.

Going from RRIRFRPPRLPRPRPRPQKHPRP to RRIRFRPPRLPRPRPRPQMEPRP, the “shrunken log2 fold change” value rises from -0.327 to -0.059.

Compared with RRIRFRPPRLPRPRPRPQMQPRP, RRIRFRPPRLPRPRPRPQMYPRP is lower in “shrunken log2 fold change” value: 0.203 for the first, -0.725 for the second.

Going from RRIRFRPPRLPRPRPRPQNMPRP to RRIRFRPPRLPRPRPRPQNVPRP, the “shrunken log2 fold change” value rises from -0.797 to -0.16.

RRIRFRPPRLPRPRPRPQPVPRP and RRIRFRPPRLPRPRPRPQPWPRP are within 0.2 log units of each other in “shrunken log2 fold change” value: 0.356 for the first, 0.334 for the second.

RRIRFRPPRLPRPRPRPQQTPRP and RRIRFRPPRLPRPRPRPQRLPRP are within 0.2 log units of each other in “shrunken log2 fold change” value: -0.0409 for the first, 0.106 for the second.

RRIRFRPPRLPRPRPRPQTCPRP and RRIRFRPPRLPRPRPRPQTIPRP are within 0.2 log units of each other in “shrunken log2 fold change” value: -0.31 for the first, -0.485 for the second.

Going from RRIRFRPPRLPRPRPRPQVAPRP to RRIRFRPPRLPRPRPRPQWDPRP, the “shrunken log2 fold change” value falls from 0.147 to -0.272.

Going from RRIRFRPPRLPRPRPRPQWGPRP to RRIRFRPPRLPRPRPRPQYHPRP, the “shrunken log2 fold change” value falls from -0.139 to -1.15.

Compared with RRIRFRPPRLPRPRPRPRAAPRP, RRIRFRPPRLPRPRPRPRCLPRP is lower in “shrunken log2 fold change” value: 0.408 for the first, -0.124 for the second.

Going from RRIRFRPPRLPRPRPRPRDVPRP to RRIRFRPPRLPRPRPRPREAPRP, the “shrunken log2 fold change” value falls from 0.728 to 0.115.

RRIRFRPPRLPRPRPRPREEPRP and RRIRFRPPRLPRPRPRPRILPRP are within 0.2 log units of each other in “shrunken log2 fold change” value: -0.0431 for the first, 0.0716 for the second.

Going from RRIRFRPPRLPRPRPRPRMHPRP to RRIRFRPPRLPRPRPRPRMIPRP, the “shrunken log2 fold change” value falls from -0.0776 to -0.517.

RRIRFRPPRLPRPRPRPRMKPRP and RRIRFRPPRLPRPRPRPRMSPRP are within 0.2 log units of each other in “shrunken log2 fold change” value: -0.0673 for the first, 0.000208 for the second.

RRIRFRPPRLPRPRPRPRNDPRP and RRIRFRPPRLPRPRPRPRNFPRP are within 0.2 log units of each other in “shrunken log2 fold change” value: -0.218 for the first, -0.0477 for the second.

First: RRIRFRPPRLPRPRPRPRQFPRP
Second: RRIRFRPPRLPRPRPRPRQVPRP
The “shrunken log2 fold change” value of the first is higher: -0.0547 for the first, -0.331 for the second.

Going from RRIRFRPPRLPRPRPRPRQWPRP to RRIRFRPPRLPRPRPRPRQYPRP, the “shrunken log2 fold change” value falls from 0.39 to -0.465.

RRIRFRPPRLPRPRPRPRSEPRP and RRIRFRPPRLPRPRPRPRSKPRP are within 0.2 log units of each other in “shrunken log2 fold change” value: 0.11 for the first, 0.0303 for the second.

RRIRFRPPRLPRPRPRPRSMPRP and RRIRFRPPRLPRPRPRPRSYPRP are within 0.2 log units of each other in “shrunken log2 fold change” value: -0.408 for the first, -0.268 for the second.

RRIRFRPPRLPRPRPRPRTDPRP and RRIRFRPPRLPRPRPRPRVCPRP are within 0.2 log units of each other in “shrunken log2 fold change” value: -0.0313 for the first, 0.152 for the second.

Compared with RRIRFRPPRLPRPRPRPRVEPRP, RRIRFRPPRLPRPRPRPRWGPRP is lower in “shrunken log2 fold change” value: 0.61 for the first, 0.143 for the second.

Going from RRIRFRPPRLPRPRPRPRWQPRP to RRIRFRPPRLPRPRPRPSAFPRP, the “shrunken log2 fold change” value falls from 0.229 to -0.204.

For RRIRFRPPRLPRPRPRPSCAPRP, the “shrunken log2 fold change” value was -0.22.
